Source: patent publication US20170183420

Tests used:
Assay in all cases: cell_activity
[1] = system: ZFN 20186 (CTLA-4) (synthetic); settings: pair 20186/20185, Cel-I, K562
[2] = system: ZFN 20185 (CTLA-4) (synthetic); settings: pair 20186/20185, Cel-I, K562
[3] = system: ZFN 20190 (CTLA-4) (synthetic); settings: pair 20190/20189, Cel-I, K562
[4] = system: TALEN 101620 (synthetic); settings: pair 101623/101620, K562; 10.6 with 101622, 0 with 101621
[5] = system: TALEN 101624 (synthetic); settings: pair 101625/101624, K562
[6] = system: ZFN 25029 (PD1) (synthetic); settings: pair 12942/25029, Cel-I, K562; also active in PBMC (FIG. 2)
[7] = system: ZFN 12942 (PD1) (synthetic); settings: pair 12942/25029, Cel-I, K562; also active in PBMC (FIG. 2)
[8] = system: TALEN 101632 (synthetic); settings: pair 101633/101632, K562
[9] = system: TALEN 101640 (synthetic); settings: pair 101641/101640, K562
[10] = system: TALEN 101633 (synthetic); settings: pair 101633/101632, K562
[11] = system: TALEN 101641 (synthetic); settings: pair 101641/101640, K562; RVD 16 printed ND
[12] = system: TALEN 101626 (synthetic); settings: pair 101627/101626, K562
[13] = system: TALEN 101621 (synthetic); settings: pair 101621/101618, K562; 18.1 with 101619, 0 with 101620
[14] = system: TALEN 101627 (synthetic); settings: pair 101627/101626, K562
[15] = system: TALEN 101618 (synthetic); settings: pair 101621/101618, K562; 14.7 with 101622, 6.8 with 101623
[16] = system: ZFN 20189 (CTLA-4) (synthetic); settings: pair 20190/20189, Cel-I, K562

With “ACAGTGCTTCGGCAGGCTGACAGCCAGG (double strand) [CTLA-4 site 20186]” the activity [1] was 3.3 % indels.
“ACCCGGACCTCAGTGGCTTTGCCTGGAG (double strand) [CTLA-4 site 20185]” was tested, and the activity [2] was 3.3 % indels.
“ACTACCTGGGCATAGGCAACGGAACCCA (double strand) [CTLA-4 site 20190]” was tested, and the activity [3] was 1.8 % indels.
Work on “ATGCAGATCCCACAGGCGC (double strand) [PD1 site 101620/101624]” yielded an activity [4] of 11.6 % NHEJ and an activity [5] of 10.1 % NHEJ.
For “CAGTCGTCTGGGCGGTGCT (double strand) [PD1 site 25029]”, the activity [6] was 14.7 % NHEJ.
“CCAGGGCGCCTGTGGGATCTGCATGCCT (double strand) [PD1 site 12942]” gave an activity [7] of 14.7 % NHEJ.
“CTACCTCTGTGGGGCCATCTC (double strand) [PD1 site 101632/101640]” was tested, and the activity [8] was 14.7 % NHEJ and the activity [9] was 23 % NHEJ.
With “CTCTCTTTGATCTGCGCCTTG (double strand) [PD1 site 101633/101641]” the activity [10] was 14.7 % NHEJ and the activity [11] was 23 % NHEJ.
“CTTCTCCCCAGCCCTGCTCGT (double strand) [PD1 site 101626]” was tested, and the activity [12] was 12.5 % NHEJ.
“GTAGCACCGCCCAGACGACTG (double strand) [PD1 site 101621]” was tested, and the activity [13] was 23.5 % NHEJ.
“GTGAAGGTGGCGTTGTCCCCT (double strand) [PD1 site 101627]” was tested, and the activity [14] was 12.5 % NHEJ.
Work on “GTGCTCCAGGCATGCAGATCC (double strand) [PD1 site 101618]” yielded an activity [15] of 23.5 % NHEJ.
In the case of “TGGCGGTGGGTACATGAGCTCCACCTTG (double strand) [CTLA-4 site 20189]”, the activity [16] is reported as 1.8 % indels.
